Data taken from patent publication US20200255478A1, “NOVEL COMPOUNDS ACTIVATING THE NRF2 PATHWAY” (Almirall, S.A., priority 2017, published 2020).
Where “and” joins values, the source holds several entries; their conditions need not be identical. Equal values may be shown once. Positions of bridges follow the written chain, without caps; N, C: chain ends. Non-standard residues stand in square brackets, D forms with d. βAla = NCCC(=O)O

Target: Keap1-Maltose Binding Protein (MBP tag), Q14145
Test: TR-FRET competition vs ETGE-biotin; grade band per paragraph 615

Keap1-Maltose Binding Protein (MBP tag), Q14145, sequence (Q14145 321-609 limits assumed): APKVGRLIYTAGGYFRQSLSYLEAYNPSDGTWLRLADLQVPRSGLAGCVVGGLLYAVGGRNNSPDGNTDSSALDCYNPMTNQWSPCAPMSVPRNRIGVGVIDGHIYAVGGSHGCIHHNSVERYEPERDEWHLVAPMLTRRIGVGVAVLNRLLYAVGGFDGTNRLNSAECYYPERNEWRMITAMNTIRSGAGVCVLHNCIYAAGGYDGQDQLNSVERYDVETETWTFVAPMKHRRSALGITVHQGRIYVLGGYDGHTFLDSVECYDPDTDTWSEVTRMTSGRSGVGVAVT

B1: {[Stearyl-βAla-Leu-Gln-Cys(&1)-Asp-Pro-Glu-Thr-Gly-Glu-Cys(&2)-Leu-Pro-βAla-Arg-Lys-Lys-Arg-Arg-Gln- (peptide)
peptide: Stearyl-[βAla]LQCDPETGECLP[βAla]RKKRRQRRR-NH2
modifications: bridge 4-11; not fully specified (bridges); also: Cys4 and Cys11 cyclised, linker not given here
In the case of B1, the IC50 is reported as < 100 nM and > 1 nM.
